The RNAGym collection of RNA variant scans (doi:10.1073/pnas.2313332121)
Variants at the floor of the assay were thinned out.

B1: TPR 5TU (parent)
chain: GGAUCUUCUCGAUCUAACAAAAAAGACAAAUCUGCCACAAAGCUUGAGAGCAUCUUCGGAUGCAGAGGCGGCAGCCUUCGGUGGCGCGAUAGCGCCAACGUUCUCAACUAUGACACGCAAAACGCGUGCUCCGUUGAAUGGAGUUUAUCAUG

Variants of: B1
Assay: polymerase ribozyme fitness, log enrichment relative to wild type (log ratio); higher = more active; in vitro selection for triplet polymerase activity
Summary of the method: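 The heterodimeric triplet polymerase ribozyme's subunits were each mutagenized into PCR-built libraries and transcribed. Every library was selected once, in triplicate, by annealing with a biotinylated primer, the partner subunit and triplets, incubating frozen at −7 °C, gel-excising extended constructs, capturing on streptavidin beads and running RT-PCR. Input and output libraries were Illumina-sequenced, with genotypes kept only at ≥10 input reads and ≥1 read per output. Fitness, from inverse-variance-weighted replicate averages, is the base-2 logarithm of genotype enrichment over wild-type enrichment.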

Row | Variant | polymerase ribozyme fitness (log ratio)
1 | GGAUCUUCUCGAUCGAACUUAAAAGACAGAUCUGCCACAAAGCUUGAGAGCAUCUAAGGAUGUAGAGGCGGCAGCCUUCGGUGGCGCGAUAGCACCAACGUUCUCAACUAUGACACGCAAAACGCGUGCUCCGUUGAAUGGAGUGUAUCAUG | ≤ -4.2
2 | GGAUCUUCUCGAUCGAUCAAAAAAGACAAAUCUGCCACAAAGCUUGAGAGCAUCUUCGGAUGCAGAGGCGGCAGCCUUGAUUGGCGCGAUAACGCCAACGUUCUCAACUAUGACACGCAAAACACGUGCUCCGUUGAAUGGAGUUUUUCAUG | ≤ -4.2
3 | GGAUCUUCUCGAUCGACCAAAAAAGACAAAUCUGCCACACAGCUUGAGAGCAUCUUCGGAUGCAGAGGCGGCAGCCUUCGGUGGCGCGAUAGCGCCAACGUUCUCAACUAUGACACGCAAAACGCGUGCUCCGUUGAAUGGAGUUUAUCAUG | 0.895
4 | GGAUCUUCUCGAUCCAACAAAAAAGACAAAUCUGCCACAAAGCUUGAGAGCAACUUCGGAUGCAGAGGCGGCAGCCUUCGGUGGCGCGAUAGCGCCAGCGUUCUGAACUAUGACACGCAAAACGCGUGCUCCGUUGAAUGGAGUUGAUCAUG | ≤ -4.2
5 | GGAUCUUCUCGAUCGAACAAUAAAGACAAAUCUGCCACAAAGCUUGAGAGCAUCUUCGGAUGCAGAGGCGGCAGCCUUCGGUGGUGCGAUAGCGCCAACGUUCUCAACUAUGACACGCAAUACGCGUGCUCCGUUGAGUGGAGUUUAUCAUG | -4.04
6 | GGAUCUUCUCGAUCGAACAAACAAGACAAAUCUGCCACAAAGCUUGAGAGCAUCUUCGGGUGCAGAGGCGGCUGCGUUCGGUGGCGCGAUAGCGCCAACGUUAUCAACUAUGACACGCAAAUCGCGUGCUCCGUUGAAUGGAGUUUAUCAAG | ≤ -4.2
7 | GGAUCUUCUCGAUCGAACAAAAACGACAAAUCUGACACAAAGCUUGAGAGCAUCUUCGGAUGCAGAGGCGGCAGCCUUCGGUGGCGCGAUAGCGCCAACGUUCUCAUCUAUGACACGCAAAACGCGUGCUCCGUUGAAUGGAGUUUUUCAUG | ≤ -4.2
8 | GGAUCUUCUCGAUCGAACAAAAAAGACAAAUCUGCCCCAAAGCUUGCGAGCAUCUUCGGAUGCAGAGGCGGCAGCCUUCGGUGGCGCGAUAGCGUCAACGUUCUCAACUAUGACACGCAAAACGCGUGCUCCGUUGAAUGGAGUUUAUCAUG | -1.64
9 | GGAUCUUCUCGAUCGAACAAAAAAGUCAAAUCUGCCAGAAAACAUGAGAGCAUCUUCGGAUGCAGAGGCGGCAGCCUUCGGUGGCGCGAUAGCGGCAAUGUUCUCAACUAUGACACGCAAAACGCGUGCUCCGUUGAAUGGAGUUUAUCAUG | ≤ -4.2
10 | GGAUCUUCUCGAUCCAACAAAAAAGACAAAUCUGCCACAAAGCUUGAGAGCAUCGUCGGAUGCAGAGGCGGCAGCCUUCGGUGGCGCGAUAGCGCCAACGUUCUCAACUAUGACACGCAAAACGCGUGCUCCGUUGAAUGGAGUUUAUCAUG | 0.263
11 | GGAUCUUCUCGAUCGCACAAAAAAGACAACUCUGCCACAAAGCUUGCGAGCAUCUUCGGAUGCAGAGGCGGCAGCCUUCGGUGGAGCGAUAGCGCCAACGUUCUCAACUAUGACACGCAAAACGCGUGCUCCCUUGAAUGGACUUUAUCUUG | ≤ -4.2
12 | GGAUCUUCUCGAUCGAACAAAAAAGGCAAAUCUGCCACAAAGCUUGAGAGCUACUUCGGAUGCAAAGGCGGCAGCCUUCUGUGGCGGGAUAGCGCGGACGUUCUCAAGUAUGACACGCAAAACGCGUGCUCCGUUGAAUGGAGUUUAUCAUG | ≤ -4.2
13 | GGAUCUUCUCGAUCGAACAAAUAAGACAAAUCUGCCACAAAGCUUGAGAGCAUCUACGGAUGCAGCGGCGGCAGCCUUCGGUGGCGCGAUAGCGCCAACGUUCUCAACUAUGACACACAAAACGCGUGCUCCGUUGAGUGGAGUUCAUCAUG | ≤ -4.2
14 | GGAUCUUCUCGAUCGAACAUAAAAGACAAAUCUGCCACAAAGCUUGAGAGCAUUUUCGGAUGCAGAGGCGGCAGCCUUCGGUGGGGCGAUAGCUCCAACGUUCCCAACUAUGACACGCAAAACGCGUGCUCCGUUGAAUGGAGUUUAUCAUG | -2.12
15 | GGAUCUUCUCGAUCGAACAACAAAGACAAAUCUGCCACAAAGCUUGAGCGCAUUUUCGGAUGCAGAGGCGGCAGCCUUCGGUGGCACGAUAGCGCCAACGUUCUCAACUAUGACACGCAAAACGCGUGCUCCGUUGAAUGGAGUUUAUCAUG | ≤ -4.2
16 | GGAUCUUCUCGAUCGAACAAACAAGACAAAUCUGCCACAAAGCUUGAGAGCAUCUUCGGAUGCAGAGGCGGCAGCCUUCGGUGGCGCGAUAGCGCCAACGUUCUCAACUAUGACACGCAAAACGCGUGCUCCGUUGAAUGGAGUUUAGCAUG | ≤ -4.2
17 | GGAUCUUCUCGAUCGAACACAAAAGACAAAUCUGCCACAAAUCUUGAGAGCGUCUUCGGAUGCAGAGGCGGCAGCCUUCGGUGGUGCGAUAGGGCCAACGUUAUCAACUAUGACACGCAAAACGCGUGCUCCGUUGAAUGGAGUUUAUCAUG | ≤ -4.2
18 | GGAUCUUCUCGAUCGAACAAAAAAGACAAAUCUGCCUCAAAGCUUGAGAGCAUCACCGGAUGCAGAGGCGGCAGCCUUCGGUGGCGGGAUAGCGUCAACGUUCUCGACUAUGACACGCAAAACGCGUGCUCCGUUAAAUGGAGUGUAUCAUG | ≤ -4.2
19 | GGAUCUUCUCGAUCCAACAAAAAAGACAAAUCUGCCACAAAGCUUGAGAGCAUCUUCGGAUGCAGAGGCGGCAGCCUUCGGUGGCGCGAUAGCGCCAACGUUCUCAACUAUGACACGCAAAACGCGUGCUCCGUUGAAUGGAGUCUAUCGUG | -0.684
